Source: patent publication US8669345
Each block holds one substance with its values, some of them ahead of it.

What was measured:
[1] = biological target: sNogoR310-Fc (rat) (UniProt Q99M75); assay: SPA, unlabelled Nogo1-40 (x axis Nogo1-40 [M]) displacing 125I-Nogo1-40-C from sNogoR310-Fc; the unit stands on the axis, not in the table
[2] = biological target: sNgR310 (recombinant fragment of rat NgR1, aa 27-310) (rat) (UniProt Q99M75); assay: SPA, unlabelled Nogo66 (x axis Nogo66 Conc [M]) displacing 125I-Nogo66 from sNogoR310; Bound SPA cpm falls from about 2900 to about 2050; the unit stands on the axis, not in the table
[3] = biological target: Nogo1-40; assay: SPA competition: Ig-sNogoR1-310 added in rising amount [ug] against binding of 125I-Nogo1-40-C to sNogoR310
Chain of Nogo1-40 (Q9NQC3 1055-1094): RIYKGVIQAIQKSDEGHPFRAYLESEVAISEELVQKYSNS

Chain of Nogo1-40 (peptide) (Q9NQC3 1055-1094): as above
Chain of sNogoR310-Fc (rat) (Q99M75 other isoform, or with tags, fused parts or gaps): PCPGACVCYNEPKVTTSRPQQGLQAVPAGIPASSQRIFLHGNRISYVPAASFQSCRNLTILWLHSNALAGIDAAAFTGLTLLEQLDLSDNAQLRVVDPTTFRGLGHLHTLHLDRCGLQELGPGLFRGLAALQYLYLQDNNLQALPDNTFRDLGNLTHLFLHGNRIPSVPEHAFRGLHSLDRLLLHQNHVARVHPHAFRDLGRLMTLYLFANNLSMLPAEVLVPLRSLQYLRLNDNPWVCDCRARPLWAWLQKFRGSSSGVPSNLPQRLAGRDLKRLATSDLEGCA
Chain of sNgR310 (recombinant fragment of rat NgR1, aa 27-310) (rat) (Q99M75 other isoform, or with tags, fused parts or gaps): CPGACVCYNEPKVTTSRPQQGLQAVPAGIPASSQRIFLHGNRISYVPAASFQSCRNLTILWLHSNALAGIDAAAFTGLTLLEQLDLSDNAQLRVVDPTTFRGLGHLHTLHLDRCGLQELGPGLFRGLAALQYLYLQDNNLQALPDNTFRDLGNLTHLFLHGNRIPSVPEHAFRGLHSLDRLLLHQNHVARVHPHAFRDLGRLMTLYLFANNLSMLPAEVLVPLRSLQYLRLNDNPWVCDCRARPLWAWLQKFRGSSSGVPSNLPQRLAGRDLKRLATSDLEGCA

- EC50 [1]: 120 nM
Substance: Nogo1-40 (peptide)

- EC50 [2]: 303 nM
Substance: Nogo66 (ligand)

- IC50 [3]: 100 nM
Substance: sNogoR310-Fc (from UniProt Q99M75 26-310) (Fc fusion)
